The labels stand for the following.
T1: human CD73 expressed on the cell surface (human, UniProt P21589 27-549)
T1 construct: whole, on cells; also called surface CD73
T1 sequence (looked up): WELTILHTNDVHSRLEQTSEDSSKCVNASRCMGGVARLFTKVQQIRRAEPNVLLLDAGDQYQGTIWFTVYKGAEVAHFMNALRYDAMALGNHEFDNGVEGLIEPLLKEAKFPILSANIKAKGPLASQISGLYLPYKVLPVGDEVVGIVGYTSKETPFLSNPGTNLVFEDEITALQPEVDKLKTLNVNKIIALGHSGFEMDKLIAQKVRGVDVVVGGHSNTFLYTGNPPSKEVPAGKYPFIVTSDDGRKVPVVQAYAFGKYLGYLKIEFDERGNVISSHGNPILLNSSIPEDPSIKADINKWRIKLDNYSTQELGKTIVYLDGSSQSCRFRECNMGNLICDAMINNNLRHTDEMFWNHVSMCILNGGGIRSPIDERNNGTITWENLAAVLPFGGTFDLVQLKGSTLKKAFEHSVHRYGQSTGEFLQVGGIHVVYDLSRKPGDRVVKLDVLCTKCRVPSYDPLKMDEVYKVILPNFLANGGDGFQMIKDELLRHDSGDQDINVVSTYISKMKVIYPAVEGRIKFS

B1: 374.B (antibody, human IgG4 S228P, kappa, V domains shown)
VH: EVQLLESGGGLVQPGGSLRLSCAASGFTFSYNAMSWVRQAPGKGLEWVSSISGTGGSTYYADSVKGRFTISRDNSKNTLYLQMNSLRAEDTAVYYCARGGLYGSGSYLSDFDLWGRGTLVTVSS
VL: EIVLTQSPATLSVSPGERATLSCRASQSVGSNLAWYQQKPGQAPRLLIYGASTRATGIPARFSGSGSGTEFTLTISSLQSEDFAVYYCQQHNAFPYTFGGGTKVEIKR
notes: IgG4 S228P/L235E format; Heavy chain entry ends in X, wherein X is K or absent; Biotinylated in the whole blood assay
B2: 377.B (antibody, IgG4, V domains shown)
VH: B1 VH with S30K, Y31S, N32Y, S50A, T54S, G56S, S57Y
VL: EIVLTQSPATLSVSPGERATLSCRASQSVGSNLAWYQQKPGQAPRLLIYGASTRATGIPARFSGSGSGTEFTLTISSLQSEDFAVYYCQQHNAFPYTFGGGTKVEIK
notes: IgG4 S228P/L235E format (.B construct); Biotinylated in the whole blood assay
B3: 379.B (antibody, human IgG4 S228P, kappa, V domains shown)
VH: B1 VH with Y31R, N32Y
VL: B1 VL
notes: as for B1
B4: 356.B (antibody, human IgG4 S228P, kappa, V domains shown)
VH: QVQLQESGPGLVKPSETLSLTCTVSGGSIEGRYWSWIRQPPGKGLEWIGYIYGSGSTKYNPSLKSRVTISVDTSKNQFSLKLSSVTAADTAVYYCARESQESPYNNWFDPWGQGTLVTVSS
VL: DIQMTQSPSSVSASVGDRVTITCRASQGISSWLAWYQQKPGKAPKLLIYAASSLQSGVPSRFSGSGSGTDFTLTISSLQPEDFATYYCQQGNSFPRTFGGGTKVEIKR
notes: as for B1
B5: 358.B (antibody, human IgG4 S228P, kappa, V domains shown)
VH: B4 VH with E30S, S54T, K58N
VL: B4 VL
notes: as for B1
B6: 350.B (antibody, human IgG4 S228P, kappa)
heavy: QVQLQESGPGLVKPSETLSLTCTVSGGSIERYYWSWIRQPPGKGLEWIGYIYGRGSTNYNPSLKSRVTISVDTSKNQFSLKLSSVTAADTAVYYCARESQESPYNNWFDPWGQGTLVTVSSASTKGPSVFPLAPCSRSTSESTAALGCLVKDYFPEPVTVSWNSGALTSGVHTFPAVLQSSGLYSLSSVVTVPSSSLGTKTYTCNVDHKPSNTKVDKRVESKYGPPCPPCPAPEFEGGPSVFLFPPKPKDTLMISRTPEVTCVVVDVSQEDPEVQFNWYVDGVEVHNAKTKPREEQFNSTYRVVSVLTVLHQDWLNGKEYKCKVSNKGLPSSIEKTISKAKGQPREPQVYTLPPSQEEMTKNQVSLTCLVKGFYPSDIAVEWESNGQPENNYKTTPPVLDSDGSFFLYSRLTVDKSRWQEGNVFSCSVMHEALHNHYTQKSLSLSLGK
light: DIQMTQSPSSVSASVGDRVTITCRASQGISSWLAWYQQKPGKAPKLLIYAASSLQSGVPSRFSGSGSGTDFTLTISSLQPEDFATYYCQQGNSFPRTFGGGTKVEIKRTVAAPSVFIFPPSDEQLKSGTASVVCLLNNFYPREAKVQWKVDNALQSGNSQESVTEQDSKDSTYSLSSTLTLSKADYEKHKVYACEVTHQGLSSPVTKSFNRGEC
notes: as for B1

Data on 6 molecules can be found in patent publication US20210214459A1 (Novartis, published 2021).

Where a chain is given by its changes, count along the chain named. Numbers in names are those of the source.

By EC50 (read off the curve) is commonly meant the midpoint of the concentration-response curve. Lower therefore signals greater potency.

This experiment concerns the target T1, human CD73 expressed on the cell surface. Briefly: flow cytometry, biotinylated antibody on CD8+ T cells in human whole blood, streptavidin-APC detection. The protocol: Whole blood target engagement was assessed by flow cytometry using whole blood from healthy human donors. Briefly, biotinylated antibodies were incubated with whole blood for 30 minutes prior to red blood cell lysis and fixation. Fixed cells were stained for CD3 and CD8 to identify CD8+ T cells, and streptavidin-APC to detect biotin. After staining, the cell were washed and subjected to flow cytometry analysis.
On the technique in general: In flow cytometry, cells or beads pass a laser one at a time.
With B1, the “EC50 (read off the curve)” value is roughly 6 ng/mL. For the molecule B2, the “EC50 (read off the curve)” value is roughly 5 ng/mL. The result for B3 reads roughly 6 ng/mL; that for B4, roughly 5 ng/mL; that for B5, roughly 4 ng/mL. The result for B6 reads roughly 5 ng/mL.
